Test results taken from publication PMC2646909.

Target: SOD1 G93A (untagged) (human, UniProt P00441 2-154, G94A)
Assay: competition

SOD1 G93A (untagged), sequence (P00441 2-154 G94A): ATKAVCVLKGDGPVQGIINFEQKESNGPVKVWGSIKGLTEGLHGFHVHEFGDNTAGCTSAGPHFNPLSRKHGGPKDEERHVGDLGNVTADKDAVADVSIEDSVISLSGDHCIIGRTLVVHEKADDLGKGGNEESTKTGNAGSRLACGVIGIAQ

CGGAGCCCAGCCCUCCCCAUGGAGCCAGCUCCCUCU (ssRNA) [control RNA (no AU-rich sequence)]: no binding.
